Sequences and labels used below:
B1: Hairpin Ribozyme (parent)
chain: GUCCUCUUUCACGUGCGCGUGAAAGAGAGAAGUGAACCAGAGAAACACACGUUGUGGUAUAUUACCUGGUA

Data on 38 variants can be found in the RNAGym collection of RNA variant scans (doi:10.7554/elife.80360).

In the data set the parent is B1. The data set can be described thus: self-cleavage, relative activity (ratio to wild type); higher = more cleavage; co-transcriptional.
Turning to GUCCUCUUUCACGUGCGCUUGAAAGAGAGAAGUGAACCAGAGAAACACACCUUGUGGUAUAUUACCUGGUA [G19U G51C], the self-cleavage came out at 0.707. Turning to GUCCUCUUUCACGUGCGCUUGAAAGAGAGAAGUGAACCAGAGAAACACACAUUGUGGUAUAUUACCUGGUA [G19U G51A], the self-cleavage stood at 0.956.

On to GUCCUCUUUCACGUGCGCUUGAAAGAGAGAAGUGAACCAGAGAAACACACUUUGUGGUAUAUUACCUGGUA [G19U G51U], for which the self-cleavage is 0.947. Next, GUCCUCUUUCACGUGCGCGAGAAAGAGAGAAGUGAACCAGAGAAACACACGUUGUGGUAUAUUACGUGGUA [U20A C66G]: 0.0899; GUCCUCUUUCACGUGCGCGAGAAAGAGAGAAGUGAACCAGAGAAACACACGUUGUGGUAUAUUACUUGGUA [U20A C66U]: 0.487. Next, GUCCUCUUUCACGUGCGCGAGAAAGAGAGAAGUGAACCAGAGAAACACACGUUGUGGUAUCUUACCUGGUA [U20A A61C]: 0.156; GUCCUCUUUCACGUGCGCUUGAAAGAGAGAAGUGAACCAGAGAAACACACGUUGUGGUAUAUGACCUGGUA [G19U U63G]: 0.205; GUCCUCUUUCACGUGCGCGAGAAAGAGAGAAGUGUACCAGAGAAACACACGUUGUGGUAUAUUACCUGGUA [U20A A35U]: 0.872.

For GUCCUCUUUCACGUGCGCGAGAAAGAGAGAAGUGAACUAGAGAAACACACGUUGUGGUAUAUUACCUGGUA [U20A C38U], the self-cleavage was 0.45. GUCCUCUUUCACGUGCGCGAGAAAGAGAGAAGUGAACGAGAGAAACACACGUUGUGGUAUAUUACCUGGUA [U20A C38G]: the self-cleavage turned out to be 0.19.

As to GUCCUCUUUCACGUGCGCUUGAAAGAGAGAAGUGAACCAGAUAAACACACGUUGUGGUAUAUUACCUGGUA [G19U G42U], the self-cleavage worked out at 0.346.

Regarding GUCCUCUUUCACGUGCGCUUGAAAGAGAGAAGUGAACCAGAAAAACACACGUUGUGGUAUAUUACCUGGUA [G19U G42A], the self-cleavage came out at 0.175. Consider GUCCUCUUUCACGUGCGCGAGAAAGAGAGAAGUGAACCAGAGAAAGACACGUUGUGGUAUAUUACCUGGUA [U20A C46G], for which the self-cleavage amounted to 0.162. Next, GUCCUCUUUCACGUGCGCGAGAAAGAGAGAAGUGAACCAGAGAAAAACACGUUGUGGUAUAUUACCUGGUA [U20A C46A]: 0.265; GUCCUCUUUCACGUGCGCGAGAAAGGGAGAAGUGAACCAGAGAAACACACGUUGUGGUAUAUUACCUGGUA [U20A A26G]: 0.859; GUCCUCUUUCACGUGCGCGAGAAAGAGAGAAGUGAACCAGAGAAACACACGUUGUGGUAUAUUACCGGGUA [U20A U67G]: 0.256. Turning to GUCCUCUUUCACGUGCGCUUGAAAGAGAGAAGUGAACCAGAGAAACACACGUUGUGGUAUAUUACCGGGUA [G19U U67G], the self-cleavage amounted to 0.272. In the case of GUCCUCUUUCACGUGCGCUUGAAAGAGAGAAGUGAACCAGAGAAACACACGUUGUGGUAUAUUACCAGGUA [G19U U67A] it was 0.131. With GUCCUCUUUCACGUGCGCGAGAAAGAGAGAAGUGAACCAGAGAAACAUACGUUGUGGUAUAUUACCUGGUA [U20A C48U], the self-cleavage stood at 0.137.

In the case of GUCCUCUUUCACGUGCGCUCGAAAGAGAGAAGUGAACCAGAGAAACACACGUUGUGGUAUAUUACCUGGUA [G19U U20C], the self-cleavage stood at 0.731. In the case of GUCCUCUUUCACGUGCGCGAGAAAGAGAGAAGGGAACCAGAGAAACACACGUUGUGGUAUAUUACCUGGUA [U20A U33G], the self-cleavage was determined as 0.183. GUCCUCUUUCACGUGCGCGAGAAAGAGAGAAGAGAACCAGAGAAACACACGUUGUGGUAUAUUACCUGGUA [U20A U33A]: the self-cleavage came out at 0.114.

As for GUCCUCUUUCACGUGCGCGAGAAAGAGAGAAGUGAACCAGAGAAACACACGUUGUGGUAUAUUACCUGGUA [U20A], the self-cleavage was found to be 0.869. On to GUCCUCUUUCACGUGCGCGAGAAACAGAGAAGUGAACCAGAGAAACACACGUUGUGGUAUAUUACCUGGUA [U20A G25C], for which the self-cleavage was 0.447. Next, GUCCUCUUUCACGUGCGCGAGAAAGAGAGAAGUGAACCAGAGACACACACGUUGUGGUAUAUUACCUGGUA [U20A A44C]: 0.202; GUCCUCUUUCACGUGCGCGAGAAAGAGAGAAGUGAACCAGAGAAACACACGUCGUGGUAUAUUACCUGGUA [U20A U53C]: 0.682. For GUCCUCUUUCACGUGCGCGAGAAAGAGAGAAGUGAACCAGAGAAACACACGUGGUGGUAUAUUACCUGGUA [U20A U53G], the self-cleavage was 0.673. In the case of GUCCUCUUUCACGUGCGCGAGAAAGAGAGAACUGAACCAGAGAAACACACGUUGUGGUAUAUUACCUGGUA [U20A G32C] it was 0.174. As to GUCCUCUUUCACGUGCGCGAGAAAGAGAGAAUUGAACCAGAGAAACACACGUUGUGGUAUAUUACCUGGUA [U20A G32U], the self-cleavage came to 0.0356. On to GUCCUCUUUCACGUGCGCUUGAAAGAGAGAAGUGAACCAGAGAAACACACGUUGUGGUAUAUUACCUUGUA [G19U G68U], for which the self-cleavage was 0.338. Next, GUCCUCUUUCACGUGCGCGAGAAAGAGAGAAGUGAACCAGAGAAACACACUUUGUGGUAUAUUACCUGGUA [U20A G51U]: 0.833. Next, GUCCUCUUUCACGUGCGCGAGAAAGAGAGAAGUGAACCAGAGAAACACACAUUGUGGUAUAUUACCUGGUA [U20A G51A]: 0.765; GUCCUCUUUCACGUGCGCGAGAAAGAGAGAAGUGAACCAGAGAAACACACGUUGUGGUAUAUUACCUCGUA [U20A G68C]: 0.112. Take GUCCUCUUUCACGUGCGCGAGAAAGAGAGAAGUGAACCAGAGAAACACACGUUGUGGUAUAUUCCCUGGUA [U20A A64C]: the self-cleavage is 0.163. In the case of GUCCUCUUUCACGUGCGCGAGAAAGAGAGAAGUGAACCAGAGAAACACACGUUGUGGUCUAUUACCUGGUA [U20A A59C], the self-cleavage came to 0.0988. Next, GUCCUCUUUCACGUGCGCGAGAAAGAGAGAAGUGAACCAGAGAAACACACGUUGUGGUGUAUUACCUGGUA [U20A A59G]: 0.182; GUCCUCUUUCACGUGCGCGAGAAAGAGAGAAGUGAACCAGAGAAACACAGGUUGUGGUAUAUUACCUGGUA [U20A C50G]: 0.132; GUCCUCUUUCACGUGCGCGAGAAAGAGAGAAGUGAACCAGAGAAACACACGUUGUGGUAGAUUACCUGGUA [U20A U60G]: 0.592.
